Results on 5 molecules are retold here after US20220409751A1 (NORTHSTAR MEDICAL TECHNOLOGIES, published 2022).

Assay [1] addresses urokinase plasminogen activator receptor (uPAR) (UniProt Q03405). The assay can be described thus: direct binding assay.
Another assay addresses T1, soluble uPAR (suPAR) (UniProt Q03405 23-305, limits assumed).
T1 construct: Analyte in the Biacore capture assay
The assay can be described thus: SPR (Biacore 2000), antibody captured on protein A/G surface, suPAR as analyte, 25 C, 1:1 Langmuir fit. As for the experimental part: The HE™ variants were diluted to 1 μg/mL and injected over a protein A/G surface. Antibody injections were optimized to produce antibody densities of 100-200 RU.
Six serial 3-fold dilutions of soluble uPAR (suPAR) were prepared in running buffer (PBS), and each dilution was injected in triplicate in random order at 25° C. Buffer injections were evenly distributed throughout the run. The sample injections were double-referenced against the blank flow cells and buffer injections to correct for any bulk shift or non-specific binding. Data were analyzed with BiaEvaluation software from Biacore®. Sensorgrams were fit utilizing a 1:1 Langmuir model.
For orientation: SPR reads the build-up and loss of mass on a sensor chip optically.

Changes are numbered by the printed parent chain.

T1 sequence (Q03405 23-305 limits assumed): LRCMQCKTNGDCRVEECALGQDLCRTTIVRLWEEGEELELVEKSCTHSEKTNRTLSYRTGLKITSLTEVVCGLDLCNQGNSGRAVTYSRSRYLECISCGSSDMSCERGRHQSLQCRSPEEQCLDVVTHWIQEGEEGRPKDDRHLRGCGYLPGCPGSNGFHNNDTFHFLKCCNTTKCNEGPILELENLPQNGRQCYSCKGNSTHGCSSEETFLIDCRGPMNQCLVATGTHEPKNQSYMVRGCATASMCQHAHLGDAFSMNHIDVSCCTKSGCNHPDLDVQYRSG
Sequence of urokinase plasminogen activator receptor (uPAR) (Q03405 23-305 limits assumed): as above

By Kd is commonly meant the concentration at which binding is half-saturated. A low value points to tighter binding. mouse monoclonal antibody ATN-658 came in with a Kd in assay [1] of 1 nM.

B1: HE ™ ATN-1 (antibody, IgG1, V domains shown)
VH: EVQLVQSGPEVVKTGASVKISCKASGYSFTSYYMHWVKQAHGQGLEWIGEINPYNGGASYNQKIKGRATFTVDTSTRTAYMEFSSLRSEDTAVYYCARSIYGHSVLDYWGQGTLVTVSS
VL: DVVMTQSPLSLSVTIGEPASISCRSSQSLLDSDGKTYLNWLLQKPGQSPKRLIYLVSKRDSGVPDRFSGSGSGTDFTLKISRVEAEDVGVYYCWQGTHFPLTFGQGTKLEIK
notes: V regions cloned into transient expression vectors with human gamma-1 and kappa constant region modules (IgG1, kappa); made in HEK293E cells
B1: binding with soluble uPAR (suPAR) was characterised by a dissociation constant (Kd) of 0.28 nM.

B2: HE ™ ATN-4 (renamed MNPR-101) (antibody, human IgG1, kappa, V domains shown)
VH: B1 VH with V12K, K38R, K65Q, R77S
VL: DVVMTQSPLSLSVTIGEPASISCRSSQSLLDSDGKTYLNWLLQKPGQSPQRLIYLVSKRDSGVPDRFSGSGSGTDFTLKISRVEAEDVGVYYCWQGTHFPLTFGQGTKLEIKR
notes: IgG1 kappa; In the Biacore assay the transiently expressed (HEK293E), unconjugated antibody was used; also called mAb MNPR-101; humanized mAb MNPR-101
In the assay with soluble uPAR (suPAR), B2 had an equilibrium dissociation constant (Kd) of 0.39 nM.

B3: HE ™ ATN-3 (antibody, IgG1, V domains shown)
VH: B1 VH with V12K, K38R, K65Q, R77S
VL: B1 VL
notes: Human gamma-1 and kappa constant region modules (IgG1, kappa); made in HEK293E cells
In the case of B3, in the assay with soluble uPAR (suPAR), the dissociation constant Kd amounted to 0.28 nM.

B4: HE ™ ATN-2 (antibody, IgG1, V domains shown)
VH: B1 VH
VL: B1 VL with K50Q
notes: as for B3
For the molecule B4, in the assay with soluble uPAR (suPAR), binding was characterised by a dissociation constant (Kd) of 0.38 nM.
